The results in this text go back to US20240076389A1 (NATIONAL RESEARCH COUNCIL OF CANADA, published 2024).

Test [1] has as its target T1, human AXL expressed on the cell surface of tumor cell lines (human, UniProt P30530 26-894).
T1 sequence (looked up): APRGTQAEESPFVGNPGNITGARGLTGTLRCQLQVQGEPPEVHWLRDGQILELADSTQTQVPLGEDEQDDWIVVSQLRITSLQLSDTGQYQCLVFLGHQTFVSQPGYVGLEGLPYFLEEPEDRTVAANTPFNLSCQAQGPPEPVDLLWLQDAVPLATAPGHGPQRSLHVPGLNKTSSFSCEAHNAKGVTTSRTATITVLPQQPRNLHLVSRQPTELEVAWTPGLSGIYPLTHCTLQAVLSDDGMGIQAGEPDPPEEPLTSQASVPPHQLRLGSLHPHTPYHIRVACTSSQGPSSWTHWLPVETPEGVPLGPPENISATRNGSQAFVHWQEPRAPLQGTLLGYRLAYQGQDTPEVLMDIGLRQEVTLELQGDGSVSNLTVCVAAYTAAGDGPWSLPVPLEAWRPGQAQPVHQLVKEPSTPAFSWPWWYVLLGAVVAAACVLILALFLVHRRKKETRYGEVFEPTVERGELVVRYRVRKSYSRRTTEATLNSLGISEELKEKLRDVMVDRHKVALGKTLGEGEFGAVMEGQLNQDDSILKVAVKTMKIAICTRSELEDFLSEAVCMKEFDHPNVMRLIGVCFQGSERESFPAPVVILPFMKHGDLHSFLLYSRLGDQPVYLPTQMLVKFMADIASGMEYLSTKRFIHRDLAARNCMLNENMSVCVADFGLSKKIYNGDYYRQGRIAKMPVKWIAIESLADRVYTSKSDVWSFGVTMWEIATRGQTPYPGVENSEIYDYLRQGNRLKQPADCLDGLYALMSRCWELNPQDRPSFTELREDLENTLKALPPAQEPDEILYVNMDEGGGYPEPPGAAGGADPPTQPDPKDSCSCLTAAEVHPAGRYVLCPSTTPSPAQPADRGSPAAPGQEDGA
As to the kind of experiment: cell-based or functional assay.

Test [2] addresses T2, recombinant human AXL extracellular domain, C-terminally His8-tagged (rhAXL-ECD) (human, UniProt P30530 26-451).
T2 construct: Made in CHO cells; also called (rh)AXL-ECD His8; human AXL ECD
T2 sequence: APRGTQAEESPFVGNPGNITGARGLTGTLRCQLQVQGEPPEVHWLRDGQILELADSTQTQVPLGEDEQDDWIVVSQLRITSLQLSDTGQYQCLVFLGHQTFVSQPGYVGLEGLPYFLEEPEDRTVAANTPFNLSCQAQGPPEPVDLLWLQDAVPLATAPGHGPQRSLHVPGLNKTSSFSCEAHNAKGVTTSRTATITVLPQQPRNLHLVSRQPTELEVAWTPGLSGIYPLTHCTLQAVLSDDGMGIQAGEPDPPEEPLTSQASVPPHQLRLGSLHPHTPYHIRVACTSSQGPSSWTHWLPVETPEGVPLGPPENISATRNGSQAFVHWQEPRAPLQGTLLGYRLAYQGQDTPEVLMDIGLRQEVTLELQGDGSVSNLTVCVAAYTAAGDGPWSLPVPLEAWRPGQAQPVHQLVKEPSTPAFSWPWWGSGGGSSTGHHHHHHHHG
As to the kind of experiment: SPR, AXL ECD immobilized, VHH monomer flowed, single-cycle kinetics. As to the method: (§1) For VH Hs and VHH-Fcs, binding to human and cynomolgus AXL ECD was assessed using either a Biacore T200 instrument or a Biacore 3000 instrument. Either human AXL ECD or anti-human Fc antibody was immobilized on a research-grade CM5 series S sensor chip (T200, rhAXL ECD) or a C1 sensor chip (3000, anti-human Fc) using amine coupling in acetate buffer. VHH-Fcs were captured on anti-human Fc surfaces. Either monomeric VHHs (for rhAXL ECD surfaces) or human and cyno AXL ECD (for VHH-Fc surfaces) were flowed over the surfaces at different concentration ranges. Running buffers were HBS-EP (3000) and HBS-EP+(T200). Flow rates were 10-40 ul/min. All binding studies were performed at 25° C. Surfaces were regenerated using 10 mM glycine, pH 1.5.

Test [3] concerns the target T2, recombinant human AXL extracellular …. Nature of the test: SPR, AXL ECD immobilized, VHH monomer flowed, multi-cycle kinetics. As to the method: as §1
(In general: In SPR one partner is held on a chip, and binding of the other changes the refractive index at the surface.)

The target is the same in test [4]. Nature of the test: SPR Biacore T200, mAb captured on anti-Fc, AXL ECD flowed, single-cycle kinetics. As to the method:
(§2) Surface plasmon resonance. For murine mAbs, binding to human and cynomolgus AXL ECD was assessed using a Biacore T200 instrument. Briefly, either anti-mouse or anti-human Fc antibody was immobilized on a research-grade CM5 series S sensor chip using amine coupling in acetate buffer. Murine or recombinant chimeric murine-human mAbs (mouse VH/VL; human constant regions) were captured, then recombinant human or cyno AXL ECD was flowed over the surface at different concentration ranges (0.1-500 nM) depending on the antibody. The running buffer was PBS/Tween-20 and the flow rate 100 uL/min. All binding studies were performed at 25° C. Surfaces were regenerated using 10 mM glycine, pH 1.5.

For test [5], the target named is T3, recombinant cynomolgus AXL extracellular domain (cynomolgus).
T3 construct: range 1-449; also called Cyno AXL; cyno AXL ECD
The test is described as above. As for the experimental part: as §2

Where a chain is given by its changes, count along the chain named.

B1: mIgG-F149-4G4-DM1 (antibody, V domains shown)
VH: QIQLVQSGPELKKPGETVKISCKTSGYTFTYYGINWVKQAPGKGLEWMGWINTYLGEPTYADDFKGRFAFSLETSASTAYLQINNLRDEDMATYFCTRGTMSYSFDYWGQGTALTVSS
VL: QNVLTQSPAIMSASPGEEVTMTCRASSSVSSSYLHWYQQKSGASPKLWIYSTSKLASGVPARFSGSGSGTSYSLTISSVEAEDAATYYCHQYSGDPLTFGSGTKLEVK
modifications: DM1 through SMCC linker on lysine residues of the antibody; sites not given
As to B1, in test [1], the “IC50 of growth inhibition (CellTiterGlo, 5 days) of NCI-H292 cells, -Gas6” value (“IC50 of growth inhibition … -Gas6” below) is 0.015 nM and the “IC50 of growth inhibition of NCI-H292 cells, +Gas6 (2 µg/mL)” value (shortened to “IC50 of growth inhibition … (2 µg/mL)”) was 0.013 nM.

B2: hFc-F107-7H5-DM1 (antibody, human IgG1, kappa, V domains shown)
VH: QVQLQQPGAELVKPGASVKLSCKASGYTFTSYWINWVKQRPGQGLEWIGNIYPDSSSTNYNEKFKSKATLTVDKSSTTAYIQFSSLTSEDSAVYYCTRDTYGGSPDYWGQGTTLTVSS
VL: DIVMSQSPSSLAVSAGEKVTMSCKSSQSLLNSRTRKIYLAWYQQKPGQSPKLLIYWASTRQSGVPDRFTGSGSGTDFTLTISSVQAEDLAVYYCKQSYNLWTFGGGTKLEIKR
modifications: DM1 through SMCC linker on lysine residues; sites not given
With B2, in test [1], the “IC50 of growth inhibition … -Gas6” value was determined as 0.014 nM and the “IC50 of growth inhibition … (2 µg/mL)” value amounted to 0.098 nM.

B3: hFc-F107-8D12-DM1 (antibody, human IgG1, kappa, V domains shown)
VH: QVQLQQPGAELVKPGASVQLSCKASGYTFISFWINWVKQRPGQGLEWMGNIFPGSSSTNYNEKFKSKATLTVDKSSSTAYMQLSSLTSEDSAVYFCARDYYGGSPDYWGQGTTLTVSS
VL: B2 VL with K18R, S32T, I37N, Q61E
modifications: DM1 through SMCC linker on lysine residues; sites not given
As for B3, in test [1], the “IC50 of growth inhibition … -Gas6” value was 0.011 nM and the “IC50 of growth inhibition … (2 µg/mL)” value turned out to be 0.296 nM.

B4: NRC-sdAb003 (VHH monomer) (VHH)
VHH: QVQLVESGGGLVQAGGSLRLSCAASGVTLDYTAIGWFRQAPGKERELVAAITSGGNTDYAESAKGRFRISRDNSKNTIYLQMNSLKPEDTGVYYCAARRGGARGEYDYWDQGTQVTVSS
notes: Llama VHH monomer; not shown: 6xHis and Myc tags
In general, Kd refers to the concentration at which binding is half-saturated. Broadly, the koff is the rate constant with which the complex falls apart. In general, kon refers to a measure of how fast the partners come together. As to B4, in test [2], the Kd was determined as 955 nM, the koff was determined as 0.0054 s⁻¹ and the kon is 8500 M⁻¹ s⁻¹.

B5: NRC-sdAb006 (VHH monomer) (VHH)
VHH: QVKLEESGGGLVQAGASLRLSCVASESIFGFNTMGWYRQAPGNERELVASISNSKRTMYADSVKGRFTISRDNAKNTVNLQMNNLKPEDTAVYYCRAWGIITSATVYWGQGTQVTVSS
notes: as for B4
B5: in test [3], the Kd came out at 19 nM, the koff stood at 0.0045 s⁻¹ and the kon turned out to be 240000 M⁻¹ s⁻¹.

B6: hFC-F111-3C8 (antibody, human IgG1, kappa, V domains shown)
VH: QVQLQQPGAELGKPGTSVKLSCKASGYTFTSYWMHWVKRVPGQGLEWIGNINPNSTSADYNEKFKRKATLTVDKSSSTAYMQLSTLTSEDSAVYYCTRPLMGPYWYFDVWGTGTTVTVSS
VL: QIVLTQSPAIMSASPGEKVTISCSASSSVSYMYWYQQKPGSSPKPWIYRTSNLASGVPARFSGSGSGTSYSLTISSMEAEDAATYYCQQYHNYPPTFGGGTKLEIKR
notes: Chimeric mAb, human IgG1 / human kappa constant regions; also called mAb F111-3C8; chimeric F111-3C8
As to B6, in test [4], the Kd was found to be 12 nM, the koff was found to be 0.001 s⁻¹ and the kon was 86000 M⁻¹ s⁻¹. In test [5], the Kd came out at 18 nM, the koff stood at 0.0011 s⁻¹ and the kon was determined as 60000 M⁻¹ s⁻¹.

B7: NRC-sdAb001 (VHH monomer) (VHH)
VHH: QVKLEESGGGLVQAGGSLRLSCTASASISSFDIMGWYRQAPGKQRELVAAITTLDIANYRDSVKGRFTISRDNAKNTVYLQMDSLKPEDTARYHCAAFQSDQNYWGQGTQVTVSS
notes: Llama VHH made as 6xHis- and Myc-tagged monomer in E. coli; not shown: 6xHis and Myc tags
In the case of B7, in test [2], the Kd came out at 4 nM, the koff is 0.037 s⁻¹ and the kon came to 8.5e+06 M⁻¹ s⁻¹.

B8: NRC-sdAb005 (VHH monomer) (VHH)
VHH: QVKLEESGGGLAQAGGSLRLSCAASGSISSINTIGWFRQAPGKQRELVAASDSGANRNYADSVKGRFTISRDNAKNTVYLQMNNLKPEDTAIYYCRAWGTGTISTMYWGQGTQVTVSS
notes: as for B4
B8: in test [3], the Kd was determined as 58 nM, the koff was 0.0097 s⁻¹ and the kon was 170000 M⁻¹ s⁻¹.

B9: mIgG-F155-3C7-DM1 (antibody, V domains shown)
VH: QVQLQQPGTELVKPGASVKLSCKASGYIFTNFWINWVKQRPGQGLEWIGNIFPGSNSSNYNEKFKNKATLTVDKSSSTAYMHLSSLTSEDSAVYYCVRDYYGGSPDYWGQGTTLTVSS
VL: DIVMSQSPSSLAVSAGEKVTMSCKSSQSLLNSKTRKNYLAWYQQKPGQSPKLLIYWASTRESGVPARFTGSGSGTDFTLTISSVQAEDLAIYYCKHSYNLWTFGGGTKLEIR
modifications: DM1 through SMCC linker on lysine residues of the antibody; sites not given
Consider B9, for which, in test [1], the “IC50 of growth inhibition … -Gas6” value was 0.327 nM and the “IC50 of growth inhibition … (2 µg/mL)” value was 3.9 nM.

B10: hFc-F111-5E9-VC-MMAE (antibody, human IgG1, kappa, V domains shown)
VH: QIQLVQSGPELKKPGETVKISCKASGYTFTKYGMNWVKQAPGKGLKWMGWINTYTGEPTYADDFKGRFAFSLETSASTAYLQINNLTTEDMVTYFCAKGGYYSNPIYPMDYWGQGTSVTVSS
VL: DIQMTQTTSSLSASLGDRVTISCRASQDINNYLNWYQQKPDGTVKLLIYYISRLHSGVPSRFSGSGSGTDYSLTISNLELEDVATYFCQQGNTLPFTFGSGTKLEIKR
modifications: VC-MMAE conjugate; attachment sites not given
Turning to B10, in test [1], the “IC50 of growth inhibition … -Gas6” value was approximately 1 nM.
